This note sets out measurements from patent US20040229274A1 (Johns Hopkins, published 2004).

For assay [1], the target named is T1, myc-tagged mGluR5 C-terminus (195 aa) expressed in HEK-293 cells (UniProt P31424 1009-1203).
T1 construct: it is put first here; not shown: myc tag
The assay is described as follows: GST-Homer deletion constructs, pull-down of myc-tagged mGluR5 C-terminus, immunoblot for myc. (In general: Immunoblotting shows a protein as a band on a membrane.)

For assay [2], the target named is truncated mGluR5 (C-terminal 4 amino acids deleted) expressed in HEK-293 cells (UniProt P31424). The assay is described as follows: bead-linked GST-Homer pull-down from HEK-293 cell extracts, immunoblot.
Assay [3] addresses mGluR2 transiently expressed in HEK-293 cells (UniProt P31421 19-872). Description: bead-linked GST-Homer pull-down from extracts of transfected HEK-293 cells, immunoblot. From the text:
(§1) To measure the binding interaction, mGluR5 and mGluR1a were expressed in HEK-293 cells. Cell extracts were mixed with bead-linked GST-Homer and were then eluted with SDS loading buffer. When the C-terminal 4 amino acids of mGluR5 were deleted, binding of the mGluR5 to Homer was reduced by greater than 70% (FIG. 10D, lanes 3 and 4). […] Neither mGluR2 nor mGluR4 bind Homer protein (FIGS. 10B, 10C).
(§2) For experiments examining specificity of Homer binding to metabotropic glutamate receptors, HEK-293 cells were transiently transfected with mGluR1a, mGluR2, mGluR4 or mGluR5 expression constructs, scraped into PBS+1% Triton X100, sonicated 2×10 seconds, centrifuged at 15,000 g for 10 minutes at 4° C., and pre-cleared. Lysate from half of a 10 cm plate was incubated with 50 μl of beads linked to 250 ng of protein and washed as above. Samples were analyzed by western blot analysis using the appropriate polyclonal mGluR antibody. Deletion constructs of Homer were prepared by PCR and cloned as fusion constructs with GST in pGEX (Pharmacia, Piscataway, N.J.).

Assay [4] has as its target mGluR4 transiently expressed in HEK-293 cells (UniProt P31423 33-912). The description is as above.
Description: as §1, §2

The target of assay [5] is T2, C-terminal 195 amino acids of mGluR5 encoded by an interacting cDNA of the rat hippocampus library in pPC86 (rat, UniProt P31424 1009-1203).
T2 construct: not shown: GAL4 domain supplied by vector pPC86
T2 sequence (P31424 1009-1203): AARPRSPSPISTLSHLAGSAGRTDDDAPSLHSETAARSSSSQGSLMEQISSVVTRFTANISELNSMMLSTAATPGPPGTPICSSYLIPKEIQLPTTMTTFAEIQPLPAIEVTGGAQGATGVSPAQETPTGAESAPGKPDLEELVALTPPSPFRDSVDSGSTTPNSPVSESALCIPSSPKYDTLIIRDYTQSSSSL
Description: yeast GAL4 two-hybrid screen, selection without leucine, tryptophan and histidine, confirmed by β-galactosidase assay. The protocol:
In experiments carried out in support of the present invention and described in Example 5 herein, the yeast GAL4 two-hybrid system was used to identify binding partners of the rat Homer protein in a rat brain cDNA library (Chevray and Nathans, 1992). A PCR product of the full-length Homer ORF with flanking SmaI sites was subcloned into the yeast expression vector pPC97. A random primed cDNA library was prepared from seizure stimulated adult rat hippocampus and cloned into the yeast expression vector pPC86. The library contains 2×10⁶ independent cDNAs. A total of 1.5×10⁶ clones were screened. Interacting proteins were identified by selection on plates lacking leucine, tryptophan, and histidine, restreaked and confirmed using a β-galactosidase assay.
The full-length Homer ORF with flanking SmaI sites was subdloned into the yeast expression vector pPC97. A random primed cDNA library was prepared from seizure stimulated adult rat hippocampus and cloned into the yeast expression vector pPC86. The library contains 6×10⁶ independent cDNAs and a total of 1.5×10⁶ were screened. Interacting proteins were identified by colony selection on plates lacking leucine, tryptophan, and histidine and confirmed using a β-galactosidase assay (Ausubel, et al., 1992). […]

T1 sequence (P31424 1009-1203 limits assumed): as the sequence (P31424 1009-1203) above
mGluR4 transiently expressed in HEK-293 cells, sequence (P31423 33-912 limits assumed): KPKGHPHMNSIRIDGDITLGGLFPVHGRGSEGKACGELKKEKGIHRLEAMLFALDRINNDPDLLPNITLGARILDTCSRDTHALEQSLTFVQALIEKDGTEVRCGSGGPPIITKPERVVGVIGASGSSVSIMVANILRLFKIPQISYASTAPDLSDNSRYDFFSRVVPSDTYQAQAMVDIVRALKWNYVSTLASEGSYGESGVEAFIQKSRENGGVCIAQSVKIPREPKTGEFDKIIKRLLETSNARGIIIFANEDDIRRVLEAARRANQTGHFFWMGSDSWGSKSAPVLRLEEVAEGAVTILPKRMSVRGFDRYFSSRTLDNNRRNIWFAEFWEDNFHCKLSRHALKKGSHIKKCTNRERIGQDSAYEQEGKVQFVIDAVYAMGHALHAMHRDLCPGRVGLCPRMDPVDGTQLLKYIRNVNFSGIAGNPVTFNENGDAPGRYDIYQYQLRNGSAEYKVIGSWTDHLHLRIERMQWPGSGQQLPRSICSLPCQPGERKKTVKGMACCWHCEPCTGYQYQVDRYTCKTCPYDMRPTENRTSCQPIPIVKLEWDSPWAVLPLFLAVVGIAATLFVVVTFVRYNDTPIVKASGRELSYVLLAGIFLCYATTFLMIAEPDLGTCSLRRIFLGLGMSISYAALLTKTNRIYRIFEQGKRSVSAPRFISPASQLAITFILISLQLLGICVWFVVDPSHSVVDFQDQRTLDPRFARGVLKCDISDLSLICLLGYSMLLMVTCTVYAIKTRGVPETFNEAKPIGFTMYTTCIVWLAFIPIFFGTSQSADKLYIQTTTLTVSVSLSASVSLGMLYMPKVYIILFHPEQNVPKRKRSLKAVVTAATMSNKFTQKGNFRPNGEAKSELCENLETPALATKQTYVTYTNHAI
mGluR2 transiently expressed in HEK-293 cells, sequence (P31421 19-872 limits assumed): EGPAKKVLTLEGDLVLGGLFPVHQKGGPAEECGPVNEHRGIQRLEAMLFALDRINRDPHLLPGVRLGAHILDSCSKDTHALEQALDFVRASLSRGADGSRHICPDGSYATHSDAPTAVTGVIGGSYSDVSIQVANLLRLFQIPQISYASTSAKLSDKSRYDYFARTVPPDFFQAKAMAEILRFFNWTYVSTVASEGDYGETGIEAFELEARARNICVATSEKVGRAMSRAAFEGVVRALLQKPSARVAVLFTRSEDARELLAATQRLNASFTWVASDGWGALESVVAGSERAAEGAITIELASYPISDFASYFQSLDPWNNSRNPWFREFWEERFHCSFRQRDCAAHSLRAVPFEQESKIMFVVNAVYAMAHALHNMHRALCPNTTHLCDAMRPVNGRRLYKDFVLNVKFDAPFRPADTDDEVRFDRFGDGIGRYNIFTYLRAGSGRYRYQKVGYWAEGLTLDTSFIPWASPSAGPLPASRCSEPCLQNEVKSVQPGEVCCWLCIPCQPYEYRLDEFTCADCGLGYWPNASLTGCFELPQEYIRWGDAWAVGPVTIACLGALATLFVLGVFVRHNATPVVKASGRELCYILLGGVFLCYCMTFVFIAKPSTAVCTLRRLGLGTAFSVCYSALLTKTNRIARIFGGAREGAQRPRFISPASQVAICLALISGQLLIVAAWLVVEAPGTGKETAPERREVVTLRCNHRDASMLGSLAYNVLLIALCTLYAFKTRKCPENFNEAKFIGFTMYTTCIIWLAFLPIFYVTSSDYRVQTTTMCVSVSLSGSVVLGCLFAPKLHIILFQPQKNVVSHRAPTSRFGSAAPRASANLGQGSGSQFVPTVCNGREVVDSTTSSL

B1: GST-Homer deletion construct, Homer fragment 109-186 (N-terminal 108 amino acids deleted) (other, not shown: a dimerising Fc or GST; large carriers; small tags and cut ends)
chain: AARLAKEKSQEKMELTSTPSQESAGGDLQSPLTPESINGTDDERTPDVTQNSEPRAEPAQNALPFSHRYTFNSAIMIK
notes: GST put first as usual for pGEX
Regarding B1, the binding result in assay [1] was “no binding”.

B2: GST-Homer fusion protein (full length rat Homer, 1-186, fused to glutathione-S-transferase) (other)
chain: MGEQPIFSTRAHVFQIDPNTKKNWVPTSKHAVTVSYFYDSTRNVYRIISLDGSKAIINSTITPNMTFTKTSQKFGQWADSRANTVYGLGFSSEHHLSKFAEKFQEFKEAARLAKEKSQEKMELTSTPSQESAGGDLQSPLTPESINGTDDERTPDVTQNSEPRAEPAQNALPFSHRYTFNSAIMIK
notes: Bacterially expressed from pGEX; GST is put first as usual for pGEX; also called Homer GST fusion protein; Homer-GST fusion protein; not shown: glutathione-S-transferase (GST) encoded by the bacterial vector pGEX (Pharmacia)
B2: the reduction of binding against full length mGluR5 in assay [2] is more than 70%. Further, the binding result in assay [3] and in assay [4] was “no binding” each time.

B3: full-length Homer ORF in yeast expression vector pPC97 (GAL4 two-hybrid fusion) (other)
chain: B2 chain
notes: also called Homer (two-hybrid bait); not shown: GAL4 domain supplied by vector pPC97
With B3, the binding result in assay [5] is listed as “binds”.
